Target: T1, XOD (Bos taurus, UniProt P80457)
T1 construct: purchased Boehringer Mannheim GmbH
Experiment: Thermal stability of XOD
Format: physicochemical, cow
Conditions: 75 min, pH 7.0, 0.2 U/ml
Method: Measuring Method of XOD Activity
The method described in Method of Enzymatic Analysis, vol. 3, pages 212, 1983.
To 2 ml of aqueous solution containing 5 mg of pyromellitic acid-modified dextran obtained in Example 1(1), 65 mg of WSC was added. To the resulting solution maintained at pH 6.0 using a pH-stat, 0.5 ml of 10 mM phosphate buffer solution (pH 7.0) containing 10 mg of XOD (mfd. by Boehringer Mannheim GmbH., derived from cow milk) was added and reacted at 50° C. for 24 hours.
The thus obtained modified XOD and the intact XOD were dissolved in 20 mM phosphate buffer solution (pH 7.0) in an amount of 0.2 U/ml, respectively,and stored at a predetermined temperature for 75 min. to measure the change of residual activity.

T1 sequence (P80457 whole entry): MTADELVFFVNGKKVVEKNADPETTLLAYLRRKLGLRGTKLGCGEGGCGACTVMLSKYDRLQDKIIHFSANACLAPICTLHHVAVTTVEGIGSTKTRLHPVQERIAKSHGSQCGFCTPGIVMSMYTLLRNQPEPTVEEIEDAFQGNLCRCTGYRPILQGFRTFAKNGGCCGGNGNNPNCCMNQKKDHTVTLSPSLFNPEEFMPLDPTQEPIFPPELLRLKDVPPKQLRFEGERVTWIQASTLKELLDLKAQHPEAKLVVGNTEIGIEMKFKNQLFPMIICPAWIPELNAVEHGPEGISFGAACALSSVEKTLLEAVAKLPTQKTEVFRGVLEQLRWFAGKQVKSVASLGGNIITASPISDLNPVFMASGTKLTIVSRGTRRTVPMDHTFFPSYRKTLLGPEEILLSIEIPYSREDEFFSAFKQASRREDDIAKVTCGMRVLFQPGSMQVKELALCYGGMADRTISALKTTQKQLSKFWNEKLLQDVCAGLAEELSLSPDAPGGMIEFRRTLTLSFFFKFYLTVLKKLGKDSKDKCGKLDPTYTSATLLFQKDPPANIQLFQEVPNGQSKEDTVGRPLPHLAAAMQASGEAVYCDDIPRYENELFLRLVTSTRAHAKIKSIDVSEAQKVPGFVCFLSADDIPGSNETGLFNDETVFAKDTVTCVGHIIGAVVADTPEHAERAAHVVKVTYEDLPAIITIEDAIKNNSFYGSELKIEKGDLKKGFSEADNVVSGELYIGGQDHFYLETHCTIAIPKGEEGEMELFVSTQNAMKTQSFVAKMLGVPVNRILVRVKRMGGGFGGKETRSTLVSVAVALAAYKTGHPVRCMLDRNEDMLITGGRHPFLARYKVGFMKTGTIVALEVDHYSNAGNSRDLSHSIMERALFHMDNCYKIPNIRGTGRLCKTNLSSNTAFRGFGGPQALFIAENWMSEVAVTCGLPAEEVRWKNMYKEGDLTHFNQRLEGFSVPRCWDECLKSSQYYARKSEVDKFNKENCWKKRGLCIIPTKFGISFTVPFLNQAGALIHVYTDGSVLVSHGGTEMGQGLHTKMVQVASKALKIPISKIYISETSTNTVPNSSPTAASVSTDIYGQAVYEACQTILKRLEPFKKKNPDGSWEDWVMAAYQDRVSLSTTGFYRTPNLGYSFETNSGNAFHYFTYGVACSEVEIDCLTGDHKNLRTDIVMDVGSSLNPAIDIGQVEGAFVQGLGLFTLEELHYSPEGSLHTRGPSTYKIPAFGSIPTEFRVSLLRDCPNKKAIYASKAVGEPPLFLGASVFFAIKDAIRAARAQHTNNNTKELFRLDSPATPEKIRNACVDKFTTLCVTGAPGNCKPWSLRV

“Intact XOD: xanthine oxidase (E.C.1.2.3.2), mfd. by Boehringer Mannheim GmbH., derived from cow milk” was tested, and the Residual activity (56 °C) was 40.5%, the Residual activity (58 °C) was 31.2% and the Residual activity (60 °C) was 23.4%.

From patent US5834273A, “Heat-stable and water soluble modified enzymes” (Wako Pure Chemical Industries, Ltd., priority 1991, dated 1998)
